Here are results for four molecules from article PMC5932559, “Defective mitochondrial protease LonP1 can cause classical mitochondrial disease” (Human Molecular Genetics, 2018).

Sequences and labels used below:
B1: wild-type LonP1 lacking the mitochondrial targeting sequence, C-terminal 6xHis (enzyme)
chain: MTIPDVFPHLPLIAITRNPVFPRFIKIIEVKNKKLVELLRRKVRLAQPYVGVFLKRDDSNESDVVESLDEIYHTGTFAQIHEMQDLGDKLRMIVMGHRRVHISRQLEVEPEEPEAENKHKPRRKSKRGKKEAEDELSARHPAELAMEPTPELPAEVLMVEVENVVHEDFQVTEEVKALTAEIVKTIRDIIALNPLYRESVLQMMQAGQRVVDNPIYLSDMGAALTGAESHELQDVLEETNIPKRLYKALSLLKKEFELSKLQQRLGREVEEKIKQTHRKYLLQEQLKIIKKELGLEKDDKDAIEEKFRERLKELVVPKHVMDVVDEELSKLGLLDNHSSEFNVTRNYLDWLTSIPWGKYSNENLDLARAQAVLEEDHYGMEDVKKRILEFIAVSQLRGSTQGKILCFYGPPGVGKTSIARSIARALNREYFRFSVGGMTDVAEIKGHRRTYVGAMPGKIIQCLKKTKTENPLILIDEVDKIGRGYQGDPSSALLELLDPEQNANFLDHYLDVPVDLSKVLFICTANVTDTIPEPLRDRMEMINVSGYVAQEKLAIAERYLVPQARALCGLDESKAKLSSDVLTLLIKQYCRESGVRNLQKQVEKVLRKSAYKIVSGEAESVEVTPENLQDFVGKPVFTVERMYDVTPPGVVMGLAWTAMGGSTLFVETSLRRPQDKDAKGDKDGSLEVTGQLGEVMKESARIAYTFARAFLMQHAPANDYLVTSHIHLHVPEGATPKDGPSAGCTIVTALLSLAMGRPVRQNLAMTGEVSLTGKILPVGGIKEKTIAAKRAGVTCIVLPAENKKDFYDLAAFITEGLEVHFVEHYREIFDIAFPDEQAEALAVER
B2: p.(Tyr565His) LonP1 mutant lacking the mitochondrial targeting sequence, C-terminal 6xHis (enzyme, human, UniProt P36776-1 115-959, looked up)
chain: B1 chain with Y451H
notes: A variant found in a patient and in ExAC; also called Y565H; hTyr565His
B3: p.(Glu733Lys) LonP1 mutant lacking the mitochondrial targeting sequence, C-terminal 6xHis (enzyme, human, UniProt P36776-1 115-959, looked up)
chain: B1 chain with E619K
notes: A variant found in a patient and in ExAC; also called E733K; hGlu733Lys
B4: TFAM (natural protein, UniProt Q00059 43-246, looked up)
chain: SSVLASCPKKPVSSYLRFSKEQLPIFKAQNPDAKTTELIRRIAQRWRELPDSKKKIYQDAYRAEWQVYKEEISRFKEQLTPSQIMSLEKEIMDKHLKRKAMTKKKELTLLGKPKRPRSAYNVYVAERFQEAKGDSPQEKLKTVKENWKNLSDSEKELYIQHAKEDETRYHNEMKSWEEQMIEVGRKDLLRRTIKKQRKYGAEEC
modifications: NT-547-maleimide dye on cysteine (for microscale thermophoresis)
notes: TFAM, the mitochondrial transcription and mtDNA packaging factor and a LonP1 substrate; recombinant; It was unlabelled in the proteolysis assays; also called TFAM substrate

Substitutions are numbered along the chain they refer to. Names and notes keep the numbering of the source.

In one data set the target is T1, TFAM (UniProt Q00059 43-246, NT-547-maleimide dye on cysteine (for microscale thermophoresis)).
T1 chain: B4 chain
The data set can be described thus: MST; 4 mM AMP-PNP.

Data set [1] deals with the molecule itself. The data set is described as follows: SEC; Superose 6 Increase 10/300; 20 mM Tris-HCl pH 8.0, 10% glycerol, 2 mM DTT, 50 mM NaCl, 10 mM MgCl2, samples incubated 10 min at 37°C with ATP (1 mM in the methods, 4 mM in the legend); fractions on SDS-PAGE, size calibration curve; in 1 M NaCl without ATP higher-order oligomers were largely prevented. For orientation: SEC sorts molecules by how far they enter the pores of the column.

Data set [2] has as its target T2, 1:1 mixture of wild-type and p.(Tyr565His) LonP1, oligomerised by dialysis from high salt (human, UniProt P36776-1 115-959; P36776-1 115-959, p.(Tyr565His)).
T2 construct: as the chain of m1; as the chain of m2; also called WT/Y565H; WT + Y565H; source: equimolar purified LonP1 forms mixed in high salt, oligomerised by dialysis
The data set can be described thus: MST; as a3, with 4 mM AMP-PNP; LonP1 forms or 1:1 mixtures titrated (2.3-4650 nM) against labelled TFAM; 24°C. As to conditions: both partners purified.

For data set [3], the target named is T3, 1:1 mixture of wild-type and p.(Glu733Lys) LonP1, oligomerised by dialysis from high salt (human, UniProt P36776-1 115-959; P36776-1 115-959, p.(Glu733Lys)).
T3 construct: as the chain of m1; as the chain of m3; The make-up of the oligomers (heterohexamers or separate homohexamers) was not determined; also called WT/E733K; WT + E733K; source: equimolar purified LonP1 forms mixed in high salt, oligomerised by dialysis
The data set is described as above. Conditions: both partners purified.

Data set [4] has as its target T4, wild-type LonP1 lacking the mitochondrial targeting sequence, C-terminal 6xHis (human, UniProt P36776-1 115-959).
T4 construct: called the mature protein; Hexamer at low salt with ATP, mostly monomer in 1 M NaCl without ATP; also called WT; LonP1 wild-type; source: pET-20b, induced with 1 mM IPTG, purified (His-Select nickel, HiTrap Heparin, MonoQ, Superdex 200)
T4 sequence (looked up): B1 chain
The data set can be described thus: MST; TFAM labelled with NT-547-maleimide, unlabelled LonP1 titrated (2.3-4650 nM); MST buffer (50 mM Tris-HCl pH 8.0, 10 mM MgCl2, 10% glycerol) without nucleotide; 24°C; Monolith NT.115. Conditions: both partners purified.

For data set [5], the target named is B3. The data set is described as above. As to conditions: both partners purified.

For the molecule B1, the dissociation constant Kd – broadly, the concentration at which binding is half-saturated – with TFAM stood at 2.2 µM. Consider B2, for which, in data set [1], the stoichiometry N (commonly the number of molecules, sites or subunits per partner or assembly) turned out to be 6. The same measure, in the same setting: in the case of B3 it was 6. Turning to B4, the Kd in data set [2] is 3.22 µM; in data set [3], 2.17 µM; in data set [4], 1.36 µM; in data set [5] it was 1.52 µM.
